# From US20260242735A1
# Assays:
# Assay in all cases: alanine scan, flow cytometry, HEK293-T
# [1] = target: human CD33 G151A (human) (UniProt P20138)
# [2] = target: human CD33 R109A (human) (UniProt P20138)
# [3] = target: human CD33 G64A (human) (UniProt P20138)
# [4] = target: human CD33 G172A (human) (UniProt P20138)
# [5] = target: human CD33 D51A (human) (UniProt P20138)
# [6] = target: human CD33 H137A (human) (UniProt P20138)
# [7] = target: human CD33 G188A (human) (UniProt P20138)
# [8] = target: human CD33 W179A (human) (UniProt P20138)
# [9] = target: human CD33 Y50A (human) (UniProt P20138)
# [10] = target: human CD33 R119A (human) (UniProt P20138)
# [11] = target: human CD33 Q80A (human) (UniProt P20138)
# [12] = target: human CD33 V138A (human) (UniProt P20138)
# [13] = target: human CD33 T75A (human) (UniProt P20138)
# [14] = target: human CD33 V136A (human) (UniProt P20138)
# [15] = target: human CD33 D140A (human) (UniProt P20138)
# [16] = target: human CD33 Y127A (human) (UniProt P20138)
# [17] = target: human CD33 K130A (human) (UniProt P20138)
# [18] = target: human CD33 P96A (human) (UniProt P20138)
# [19] = target: human CD33 E63A (human) (UniProt P20138)
# [20] = target: human CD33 P55A (human) (UniProt P20138)
# [21] = target: human CD33 T192A (human) (UniProt P20138)
# [22] = target: human CD33 C163A (human) (UniProt P20138)
# [23] = target: human CD33 V56A (human) (UniProt P20138)
# [24] = target: human CD33 F117A (human) (UniProt P20138)
# [25] = target: human CD33 P48A (human) (UniProt P20138)
# [26] = target: human CD33 S124A (human) (UniProt P20138)
# [27] = target: human CD33 H157A (human) (UniProt P20138)
# [28] = target: human CD33 I105A (human) (UniProt P20138)
# [29] = target: human CD33 E81A (human) (UniProt P20138)
# [30] = target: human CD33 Q83A (human) (UniProt P20138)
# [31] = target: human CD33 N76A (human) (UniProt P20138)
# [32] = target: human CD33 D79A (human) (UniProt P20138)
# [33] = target: human CD33 P150A (human) (UniProt P20138)
# [34] = target: human CD33 W60A (human) (UniProt P20138)
# [35] = target: human CD33 R122A (human) (UniProt P20138)
# [36] = target: human CD33 S166A (human) (UniProt P20138)
# [37] = target: human CD33 L103A (human) (UniProt P20138)
# [38] = target: human CD33 S128A (human) (UniProt P20138)
# [39] = target: human CD33 Q133A (human) (UniProt P20138)
# [40] = target: human CD33 T139A (human) (UniProt P20138)
# [41] = target: human CD33 A65S (human) (UniProt P20138)
# [42] = target: human CD33 V165A (human) (UniProt P20138)
# [43] = target: human CD33 M120A (human) (UniProt P20138)
# [44] = target: human CD33 H143A (human) (UniProt P20138)
# [45] = target: human CD33 T185A (human) (UniProt P20138)
# human CD33 R119A (human), sequence (P20138 18-364 R119A limits assumed): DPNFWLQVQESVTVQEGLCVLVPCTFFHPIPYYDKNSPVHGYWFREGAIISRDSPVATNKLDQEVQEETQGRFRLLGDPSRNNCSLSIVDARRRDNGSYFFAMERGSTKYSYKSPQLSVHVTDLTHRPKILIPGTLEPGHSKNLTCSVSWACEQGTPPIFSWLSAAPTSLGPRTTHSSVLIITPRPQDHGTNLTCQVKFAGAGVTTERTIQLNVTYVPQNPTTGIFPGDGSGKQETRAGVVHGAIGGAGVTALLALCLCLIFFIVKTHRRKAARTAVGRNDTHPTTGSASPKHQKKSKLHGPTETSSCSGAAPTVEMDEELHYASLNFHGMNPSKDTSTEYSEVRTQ
# human CD33 G172A (human), sequence (P20138 18-364 G172A limits assumed): as the sequence (P20138 18-364 R119A limits assumed) above, with A102R, G155A counted along it
# human CD33 T75A (human), sequence (P20138 18-364 T75A limits assumed): as the sequence (P20138 18-364 R119A limits assumed) above, with T58A, A102R counted along it
# human CD33 L103A (human), sequence (P20138 18-364 L103A limits assumed): as the sequence (P20138 18-364 R119A limits assumed) above, with L86A, A102R counted along it
# human CD33 P96A (human), sequence (P20138 18-364 P96A limits assumed): as the sequence (P20138 18-364 R119A limits assumed) above, with P79A, A102R counted along it
# human CD33 S128A (human), sequence (P20138 18-364 S128A limits assumed): as the sequence (P20138 18-364 R119A limits assumed) above, with A102R, S111A counted along it
# human CD33 E81A (human), sequence (P20138 18-364 E81A limits assumed): as the sequence (P20138 18-364 R119A limits assumed) above, with E64A, A102R counted along it
# human CD33 P150A (human), sequence (P20138 18-364 P150A limits assumed): as the sequence (P20138 18-364 R119A limits assumed) above, with A102R, P133A counted along it
# human CD33 C163A (human), sequence (P20138 18-364 C163A limits assumed): as the sequence (P20138 18-364 R119A limits assumed) above, with A102R, C146A counted along it
# human CD33 S124A (human), sequence (P20138 18-364 S124A limits assumed): as the sequence (P20138 18-364 R119A limits assumed) above, with A102R, S107A counted along it
# human CD33 G151A (human), sequence (P20138 18-364 G151A limits assumed): as the sequence (P20138 18-364 R119A limits assumed) above, with A102R, G134A counted along it
# human CD33 W179A (human), sequence (P20138 18-364 W179A limits assumed): as the sequence (P20138 18-364 R119A limits assumed) above, with A102R, W162A counted along it
# human CD33 H137A (human), sequence (P20138 18-364 H137A limits assumed): as the sequence (P20138 18-364 R119A limits assumed) above, with A102R, H120A counted along it
# human CD33 K130A (human), sequence (P20138 18-364 K130A limits assumed): as the sequence (P20138 18-364 R119A limits assumed) above, with A102R, K113A counted along it
substance,measurement,setting,value
Refmab #7 (WM53) (antibody),Mean % WT Binding,[1],121 % WT binding
same,Mean % WT Binding,[2],127 % WT binding
same,Mean % WT Binding,[3],119 % WT binding
same,Mean % WT Binding,[4],92.1 % WT binding
same,Mean % WT Binding,[5],9.2 % WT binding
same,Mean % WT Binding,[6],114 % WT binding
same,Mean % WT Binding,[7],127 % WT binding
same,Mean % WT Binding,[8],111 % WT binding
same,Mean % WT Binding,[9],1 % WT binding
same,Mean % WT Binding,[10],116 % WT binding
same,Mean % WT Binding,[11],124 % WT binding
same,Mean % WT Binding,[12],91 % WT binding
same,Mean % WT Binding,[13],115 % WT binding
same,Mean % WT Binding,[14],85.9 % WT binding
same,Mean % WT Binding,[15],116 % WT binding
same,Mean % WT Binding,[16],175 % WT binding
same,Mean % WT Binding,[17],148 % WT binding
same,Mean % WT Binding,[18],98.7 % WT binding
same,Mean % WT Binding,[19],93 % WT binding
same,Mean % WT Binding,[20],94.7 % WT binding
same,Mean % WT Binding,[21],102 % WT binding
same,Mean % WT Binding,[22],102 % WT binding
same,Mean % WT Binding,[23],117 % WT binding
same,Mean % WT Binding,[24],132 % WT binding
same,Mean % WT Binding,[25],42.5 % WT binding
same,Mean % WT Binding,[26],81.8 % WT binding
same,Mean % WT Binding,[27],116 % WT binding
same,Mean % WT Binding,[28],56.1 % WT binding
same,Mean % WT Binding,[29],98.4 % WT binding
same,Mean % WT Binding,[30],120 % WT binding
same,Mean % WT Binding,[31],93.9 % WT binding
same,Mean % WT Binding,[32],83.5 % WT binding
same,Mean % WT Binding,[33],115 % WT binding
same,Mean % WT Binding,[34],2.1 % WT binding
same,Mean % WT Binding,[35],25.1 % WT binding
same,Mean % WT Binding,[36],108 % WT binding
same,Mean % WT Binding,[37],109 % WT binding
same,Mean % WT Binding,[38],179 % WT binding
same,Mean % WT Binding,[39],100 % WT binding
same,Mean % WT Binding,[40],121 % WT binding
same,Mean % WT Binding,[41],117 % WT binding
same,Mean % WT Binding,[42],118 % WT binding
same,Mean % WT Binding,[43],92 % WT binding
same,Mean % WT Binding,[44],112 % WT binding
same,Mean % WT Binding,[45],106 % WT binding
